Tests used:
[1] = target: Light-harvesting 2 (LH2) complex from Rhodobacter sphaeroides (Rhodobacter sphaeroides); assay: FRET or BRET; fluorescence lifetime microscopy (TCSPC) of LH2 emission at 857 ± 3 nm after excitation at 485 nm; intact DOPC proteoliposomes (LH2 only, 2:1, 1:1, 0.5:1 LH2:RC-LH1); E = 1 - τDA/τD; values are averages for the whole system
[2] = target: Reaction-centre light-harvesting 1 (RC-LH1) complex from Rhodobacter sphaeroides, carotenoid-less (from the ΔcrtB strain) (Rhodobacter sphaeroides) (UniProt P0C0Y8); assay: as above

LH2 fluorescence lifetime in LH2-only proteoliposomes [1]: 0.72 ns | LH2 fluorescence lifetime in proteoliposomes (0.5:1 LH2:RC-LH1) [2]: 0.37 ns | LH2 fluorescence lifetime in proteoliposomes (1:1 LH2:RC-LH1) [2]: 0.35 ns | LH2 fluorescence lifetime in proteoliposomes (2:1 LH2:RC-LH1) [2]: 0.43 ns | LH2→RC-LH1 energy transfer efficiency (0.5:1 LH2:RC-LH1) [2]: 49% | LH2→RC-LH1 energy transfer efficiency (1:1 LH2:RC-LH1) [2]: 51% | LH2→RC-LH1 energy transfer efficiency (2:1 LH2:RC-LH1) [2]: 40%
Substance: Light-harvesting 2 (LH2) complex from Rhodobacter sphaeroides
